Experimental data as given in US20170319688A1 (Genentech, published 2017).
Changes are numbered by the printed parent chain. Values belong to the binder of their own block, whether it stands above or below them.

Columns and labels:
Assay in all cases: SPR (BIAcore T200), RSPO3 immobilized, antibody injected, 25 C, 1:1 Langmuir
[1] = molecular target: T1, cynomolgus RSPO3 (cynomolgus, UniProt A0A2K5UTQ7 22-273)
T1 construct: also called cyno RSPO3
T1 sequence: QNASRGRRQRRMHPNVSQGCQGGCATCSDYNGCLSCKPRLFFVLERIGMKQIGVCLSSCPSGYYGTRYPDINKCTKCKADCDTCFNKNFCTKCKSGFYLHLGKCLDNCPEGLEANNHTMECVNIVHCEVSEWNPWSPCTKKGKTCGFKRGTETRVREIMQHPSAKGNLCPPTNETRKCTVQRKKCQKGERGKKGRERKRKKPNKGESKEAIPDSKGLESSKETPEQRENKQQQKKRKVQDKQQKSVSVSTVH

[2] = molecular target: T2, murine RSPO3 (R&D Systems Cat. No. 4120-RS/CF) (murine, UniProt Q2TJ95 22-277, limits assumed)
T2 construct: also called mouse RSPO3
T2 sequence (looked up): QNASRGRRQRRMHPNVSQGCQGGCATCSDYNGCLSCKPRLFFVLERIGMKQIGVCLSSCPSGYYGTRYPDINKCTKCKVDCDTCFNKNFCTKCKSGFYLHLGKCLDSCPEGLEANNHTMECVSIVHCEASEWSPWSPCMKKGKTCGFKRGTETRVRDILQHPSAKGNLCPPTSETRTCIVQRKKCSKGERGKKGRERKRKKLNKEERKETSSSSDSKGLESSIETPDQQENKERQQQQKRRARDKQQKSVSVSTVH

[3] = molecular target: T3, human RSPO3 (human, UniProt Q9BXY4 22-272)
T3 construct: Recombinant human RSPO3 protein (Genentech); also called huRSPO3; hRSPO3
T3 sequence: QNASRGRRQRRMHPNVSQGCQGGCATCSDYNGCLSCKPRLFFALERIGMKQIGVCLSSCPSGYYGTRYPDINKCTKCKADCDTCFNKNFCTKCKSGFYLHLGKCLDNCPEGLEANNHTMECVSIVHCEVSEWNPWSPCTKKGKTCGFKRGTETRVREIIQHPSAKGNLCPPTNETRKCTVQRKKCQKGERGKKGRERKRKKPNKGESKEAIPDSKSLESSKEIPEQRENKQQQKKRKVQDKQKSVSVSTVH

B1: chimeric 4A6 (antibody, V domains shown)
VH: EVQLVESGGGSVQPGRSLKVSCAASGFTFSDYDMAWVRQAPKKGLEWVATIIYDGSRTYYRDSVKGRFTLSRDNTKSTLCLQMDSLRSEDTATYYCAAHDRSFDYWGQGIMVTVSS
VL: DIQMTQSPASLSASLGETVSIECLASEDISNDLVWYQQKSGKSPQLLIYAASRLQDGVPSRFSGSGFGTRFSLKISGMQPEDEADYFCQQSYKYLPTFGAGTKLGLK
notes: Chimeric counterpart of hu4A6 with the rat 4A6 variable domains
- Kd [1]: 0.174 nM
- koff [1]: 3.36e-05 s⁻¹
- kon [1]: 194000 M⁻¹ s⁻¹
- Kd [2]: 0.337 nM
- koff [2]: 5.22e-05 s⁻¹
- kon [2]: 155000 M⁻¹ s⁻¹
- Kd [3]: 0.363 nM
- koff [3]: 5.85e-05 s⁻¹
- kon [3]: 161000 M⁻¹ s⁻¹

B3: chimeric 11C10 (antibody, V domains shown)
VH: B1 VH with S11L, V20L, L70I, D73A, T75A, C80Y, A98T, R101K, S102T, I110V
VL: DIQMTQSPASLSASLGETVTIECRASEDIYSDLAWYQQKPGNSPQLLIYDVNSLIHGVPSRFSGSGSGTQFSLKINNLQSEDVASYFCQQYDNYPNTFGAGTKLELK
notes: Chimeric counterpart with the rat 11C10 variable domains
- Kd [1]: 1.52 nM
- koff [1]: 0.000963 s⁻¹
- kon [1]: 633000 M⁻¹ s⁻¹
- Kd [2]: 2.76 nM
- koff [2]: 0.00107 s⁻¹
- kon [2]: 388000 M⁻¹ s⁻¹
- Kd [3]: 2.67 nM
- koff [3]: 0.00113 s⁻¹
- kon [3]: 425000 M⁻¹ s⁻¹

B4: anti-RSPO3 antibody 5D6 (WO2015/058132) (antibody, V domains shown)
VH: EVQLQESGPSLVKPSQTLSLTCSVTGDSITSGYWNWIRKFPGNKFEYMGYISYSGKTYQNPSLKSRISITRDTSKNQYHLQLNSVTTEDTATYYCATYYGYGGPWFAYWGQGTLVTVSA
VL: DIVLTQSPSSMYASLGERVTITCKASQDIDSYLSWFQQKPGKSPKTLIYLTNRLVDGVPSRFSGSGSGQDYSLTISSLEYEDMGIYYCLHYDEFPLTFGAGTKLEIK
- Kd [1]: 0.697 nM
- koff [1]: 0.000321 s⁻¹
- kon [1]: 461000 M⁻¹ s⁻¹
- Kd [2]: 0.913 nM
- koff [2]: 0.000326 s⁻¹
- kon [2]: 357000 M⁻¹ s⁻¹
- Kd [3]: 0.485 nM
- koff [3]: 0.000127 s⁻¹
- kon [3]: 261000 M⁻¹ s⁻¹

B5: hu4A6.L4H2 (antibody, V domains shown)
VH: EVQLVESGGGVVQPGRSLRLSCAASGFTFSDYDMAWVRQAPGKGLEWVATIIYDGSRTYYRDSVKGRFTISRDNSKNTLYLQMNSLRAEDTAVYYCAAHDRSFDYWGQGTMVTVSS
VL: DIQMTQSPSSLSASVGDRVTITCLASEDISNDLVWYQQKPGKAPKLLIYAASRLQDGVPSRFSGSGFGTDFTLTISSLQPEDFATYYCQQSYKYLPTFGQGTKLEIK
notes: CDR graft only (L4, H2); also called humanized 4A6
- Kd [1]: 0.247 nM
- koff [1]: 5.95e-05 s⁻¹
- kon [1]: 241000 M⁻¹ s⁻¹
- Kd [2]: 0.441 nM
- koff [2]: 8.08e-05 s⁻¹
- kon [2]: 183000 M⁻¹ s⁻¹
- Kd [3]: 0.434 nM
- koff [3]: 8.47e-05 s⁻¹
- kon [3]: 195000 M⁻¹ s⁻¹

Next, values leading:

- Kd [1]: 0.576 nM
- koff [1]: 0.000121 s⁻¹
- kon [1]: 210000 M⁻¹ s⁻¹
- Kd [2]: 0.926 nM
- koff [2]: 0.000156 s⁻¹
- kon [2]: 169000 M⁻¹ s⁻¹
- Kd [3]: 0.845 nM
- koff [3]: 0.000151 s⁻¹
- kon [3]: 179000 M⁻¹ s⁻¹
B2: chimeric 15F3 (antibody, V domains shown)
VH: B1 VH with S11L, V20L, T58A, Y60F, R61G, K65R, L70V, C80Y, A97T, I110V
VL: B1 VL with A25V, L33F, F67S, K74R, D85E, L95P, G105E
notes: Chimeric counterpart with the rat 15F3 variable domains

- Kd [1]: 1.75 nM
- koff [1]: 0.00121 s⁻¹
- kon [1]: 695000 M⁻¹ s⁻¹
- Kd [2]: 3.22 nM
- koff [2]: 0.00138 s⁻¹
- kon [2]: 429000 M⁻¹ s⁻¹
- Kd [3]: 3.01 nM
- koff [3]: 0.00145 s⁻¹
- kon [3]: 480000 M⁻¹ s⁻¹
B6: hu11C10.L5H1 (antibody, V domains shown)
VH: B5 VH with A98T, R101K, S102T
VL: DIQLTQSPSSLSASVGDRVTITCRASEDIYSDLAWYQQKPGKAPKLLIYDVNSLIHGVPSRFSGSGSGTDFTLTISSLQPEDFATYYCQQYDNYPNTFGQGTKLEIK
notes: CDR graft light chain L5 with H1; also called humanized 11C10

- Kd [1]: 0.466 nM
- koff [1]: 0.000116 s⁻¹
- kon [1]: 248000 M⁻¹ s⁻¹
- Kd [2]: 0.775 nM
- koff [2]: 0.000147 s⁻¹
- kon [2]: 190000 M⁻¹ s⁻¹
- Kd [3]: 0.839 nM
- koff [3]: 0.000164 s⁻¹
- kon [3]: 196000 M⁻¹ s⁻¹
B7: hu15F3.L4H2 (antibody, V domains shown)
VH: B5 VH with T58A, Y60F, R61G, K65R, A97T
VL: B5 VL with A25V, L33F, F67S, L95P
notes: CDR graft only (L4, H2); also called humanized 15F3
